Laboratory results taken from US20120020975A1.

B1: 21B12, anti-PCSK9 huIgG4 (antibody, V domains shown)
VH: QVQLVQSGAEVKKPGASVKVSCKASGYTLTSYGISWVRQAPGQGLEWMGWVSFYNGNTNYAQKLQGRGTMTTDPSTSTAYMELRSLRSDDTAVYYCARGYGMDVWGQGTTVTVSS
VL: QSALTQPASVSGSPGQSITISCTGTSSDVGGYNSVSWYQQHPGKAPKLMIYEVSNRPSGVSNRFSGSKSGNTASLTISGLQAEDEADYYCNSYTSTSMVFGGGTKLTVLQ
B2: 16F12, anti-PCSK9 huIgG4 (antibody, V domains shown)
VH: QVHLVESGGGVVQPGRSLRLSCAASGFTFNSFGMHWVRQAPGKGLEWVALIWSDGSDEYYADSVKGRFTISRDNSKNTLYLQMNSLRAEDTAVYYCARAIAALYYYYGMDVWGQGTTVTVSS
VL: QSVLTQPPSVSAAPGQKVTISCSGSSSNIGNNFVSWYQQLPGTAPKLLIYDYNKRPSGIPDRFSGSKSGTSATLGITGLQTGDEADYYCGTWDSSLSAYVFGTGTRVTVLQ

Columns and labels:
[1] = molecular target: human PCSK9 (proprotein convertase subtilisin kexin type 9), mature form (human) (UniProt Q8NBP7); assay: BIAcore SPR, pH 7.4
[2] = molecular target: human PCSK9 (proprotein convertase subtilisin kexin type 9), mature form (human) (UniProt Q8NBP7); assay: BIAcore SPR, antibody amine-coupled to CM5 chip, PCSK9 as analyte, pH 7.4
[3] = molecular target: human PCSK9 (proprotein convertase subtilisin kexin type 9), mature form (human) (UniProt Q8NBP7); assay: BIAcore solution equilibrium binding assay, free PCSK9 read on immobilized 21B12
[4] = molecular target: human PCSK9 (proprotein convertase subtilisin kexin type 9), mature form (human) (UniProt Q8NBP7); assay: BIAcore SPR, pH 6.0
[5] = molecular target: human PCSK9 (proprotein convertase subtilisin kexin type 9), mature form (human) (UniProt Q8NBP7); assay: KinExA solution equilibrium, PCSK9-coated beads

| Binder | Kd [1] [nM] | koff [1] [s⁻¹] | kon [1] [M⁻¹ s⁻¹] | Kd [2] [nM] | Kd [3] [nM] | Kd [4] [nM] | koff [4] [s⁻¹] | kon [4] [M⁻¹ s⁻¹] | Kd [5] [nM] |
| --- | --- | --- | --- | --- | --- | --- | --- | --- | --- |
| B1 | 0.19 | 6.63e-06 | 34900 | 0.19 | 0.015 | 0.0073 | 1.68e-05 | 2.29e+06 |  |
| B2 | 0.47 | 4.98e-05 | 106000 | 0.47 |  | 0.029 | 7.01e-05 | 2.39e+06 | 0.015 |
